Test results from patent publication US20110318339A1 (FABRUS, published 2011).

Experiments:
[1] = target: T1, recombinant human DLL4 (Cat# 1506-D4/CF, R&D Systems) (human, UniProt Q9NR61 27-529); test: ELISA, DLL4 coated, Fab 100 nM
T1 construct: Bought protein; also called hDLL4; rHuman DLL4
Protocol: (§1) In this example, an ELISA binding assay was used to assess the dose-dependent binding of Fab antibodies to recombinant human DLL4 and recombinant mouse DLL4.
(§2) The plate was blocked by adding 1% BSA in Tris-buffered Saline Tween (TBST) and incubating for 1 hour at room temperature followed by washing 2 times with 150 μl TBST. A Fab antibody was serially diluted in 1% BSA in PBS. A 50 μl aliquot of each serial dilution was added, in triplicate, to each well and the plate was incubated for 1 hour at room temperature followed by washing 2 times with TBST. 50 μl of either goat anti-human kappa HRP conjugated secondary antibody (Cat # A7164-1 mL, Sigma-Aldrich) or goat anti-human lambda HRP conjugated secondary antibody (Cat # L1645-1 ml, Sigma-Aldrich), diluted 1:1000 in 1% BSA in PBS, was added to each well and the plate was incubated for 30 minutes at room temperature followed by washing 3 times with 200 μl TBST. Finally, 50 μl TMB one-component reagent (Cat # TMBW-1000-01, BioFax) was added and allowed to develop for 2 minutes at room temperature. The reaction was immediately halted by the addition of 50 μl 0.5M H₂SO₄ and the absorbance at 450 nm was measured using an ELISA plate reader.

[2] = target: T1, recombinant human DLL4 (Cat# …); test: ELISA, DLL4 coated, Fab 12.5 nM
Protocol: as §1, §2

[3] = target: T1, recombinant human DLL4 (Cat# …); test: ELISA, DLL4 coated, Fab 50 nM
Protocol: as §1, §2

[4] = target: T1, recombinant human DLL4 (Cat# …); test: ELISA, DLL4 coated, Fab 25 nM
Protocol: as §2

Binder	ELISA absorbance at 450 nm [1] [A450]	ELISA absorbance at 450 nm [2] [A450]	ELISA absorbance at 450 nm [3] [A450]	ELISA absorbance at 450 nm [4] [A450]
Fab VH5-51_IGHD5-18*01>3_IGHJ4*01 & V3-4_IGLJ1*01 (Fab, V domains shown, Fab made in E. coli: VH on CH1 with His6 and Flag tags (Plasmid A), VL on lambda CL (Plasmid E); also called wildtype; parent) VH: EVQLVQSGAEVKKPGESLKISCKGSGYSFTSYWIGWVRQMPGKGLEWMGIIYPGDSDTRYSPSFQGQVTISADKSISTAYLQWSSLKASDTAMYYCARRGYSYGYDYFDYWGQGTLVTVSS VL: QTVVTQEPSFSVSPGGTVTLTCGLSSGSVSTSYYPSWYQQTPGQAPRTLIYSTNTRSSGVPDRFSGSILGNKAALTITGAQADDESDYYCVLYMGSGISYVFGTGTKVTVL	0.17	0.17	0.16	0.18
Fab VH5-51_IGHD5-18*01>3_IGHJ4*01 G100K/G104T G24T/S28R/G35V & V3-4_IGLJ1*01 V91L/S96P S52H (Fab, V domains shown, Fab made in E. coli: VH on CH1 with His6 and Flag tags (Plasmid A), VL on lambda CL (Plasmid E); also called H: KT TRV & L: LP S52H) VH: EVQLVQSGAEVKKPGESLKISCKTSGYRFTSYWIVWVRQMPGKGLEWMGIIYPGDSDTRYSPSFQGQVTISADKSISTAYLQWSSLKASDTAMYYCARRKYSYTYDYFDYWGQGTLVTVSS VL: QTVVTQEPSFSVSPGGTVTLTCGLSSGSVSTSYYPSWYQQTPGQAPRTLIYHTNTRSSGVPDRFSGSILGNKAALTITGAQADDESDYYCLLYMGPGISYVFGTGTKVTVL	1.09	0.5	0.91	0.73
Fab VH5-51_IGHD5-18*01>3_IGHJ4*01 G100K/G104T G24T/S28R/G35V & V3-4_IGLJ1*01 V91L/S96P S52L (Fab, V domains shown, Fab made in E. coli: VH on CH1 with His6 and Flag tags (Plasmid A), VL on lambda CL (Plasmid E); also called H: KT TRV & L: LP S52L) VH: EVQLVQSGAEVKKPGESLKISCKTSGYRFTSYWIVWVRQMPGKGLEWMGIIYPGDSDTRYSPSFQGQVTISADKSISTAYLQWSSLKASDTAMYYCARRKYSYTYDYFDYWGQGTLVTVSS VL: QTVVTQEPSFSVSPGGTVTLTCGLSSGSVSTSYYPSWYQQTPGQAPRTLIYLTNTRSSGVPDRFSGSILGNKAALTITGAQADDESDYYCLLYMGPGISYVFGTGTKVTVL	1.02	0.43	0.78	0.58

The remaining lines, values ahead:

ELISA absorbance at 450 nm [1] [A450]	ELISA absorbance at 450 nm [2] [A450]	ELISA absorbance at 450 nm [3] [A450]	ELISA absorbance at 450 nm [4] [A450]	Binder
1.05	0.65	0.9	0.86	Fab VH5-51_IGHD5-18*01>3_IGHJ4*01 G100K/G104T G24T/S28R/G35V & V3-4_IGLJ1*01 V91L/S96P S52N (Fab, V domains shown, Fab made in E. coli: VH on CH1 with His6 and Flag tags (Plasmid A), VL on lambda CL (Plasmid E); also called H: KT TRV & L: LP S52N) VH: EVQLVQSGAEVKKPGESLKISCKTSGYRFTSYWIVWVRQMPGKGLEWMGIIYPGDSDTRYSPSFQGQVTISADKSISTAYLQWSSLKASDTAMYYCARRKYSYTYDYFDYWGQGTLVTVSS VL: QTVVTQEPSFSVSPGGTVTLTCGLSSGSVSTSYYPSWYQQTPGQAPRTLIYNTNTRSSGVPDRFSGSILGNKAALTITGAQADDESDYYCLLYMGPGISYVFGTGTKVTVL
0.99	0.41	0.79	0.62	Fab VH5-51_IGHD5-18*01>3_IGHJ4*01 G100K/G104T G24T/S28R/G35V & V3-4_IGLJ1*01 V91L/S96P S52T (Fab, V domains shown, Fab made in E. coli: VH on CH1 with His6 and Flag tags (Plasmid A), VL on lambda CL (Plasmid E); also called H: KT TRV & L: LP S52T) VH: EVQLVQSGAEVKKPGESLKISCKTSGYRFTSYWIVWVRQMPGKGLEWMGIIYPGDSDTRYSPSFQGQVTISADKSISTAYLQWSSLKASDTAMYYCARRKYSYTYDYFDYWGQGTLVTVSS VL: QTVVTQEPSFSVSPGGTVTLTCGLSSGSVSTSYYPSWYQQTPGQAPRTLIYTTNTRSSGVPDRFSGSILGNKAALTITGAQADDESDYYCLLYMGPGISYVFGTGTKVTVL
0.9	0.41	0.72	0.56	Fab VH5-51_IGHD5-18*01>3_IGHJ4*01 G100K/G104T G24T/S28R/G35V & V3-4_IGLJ1*01 V91L/S96P S52Y (Fab, V domains shown, Fab made in E. coli: VH on CH1 with His6 and Flag tags (Plasmid A), VL on lambda CL (Plasmid E); also called H: KT TRV & L: LP S52Y) VH: EVQLVQSGAEVKKPGESLKISCKTSGYRFTSYWIVWVRQMPGKGLEWMGIIYPGDSDTRYSPSFQGQVTISADKSISTAYLQWSSLKASDTAMYYCARRKYSYTYDYFDYWGQGTLVTVSS VL: QTVVTQEPSFSVSPGGTVTLTCGLSSGSVSTSYYPSWYQQTPGQAPRTLIYYTNTRSSGVPDRFSGSILGNKAALTITGAQADDESDYYCLLYMGPGISYVFGTGTKVTVL
